{"source": "patent US20200317768A1", "about": "(published 2020)", "binders": {"B1": {"name": "M103205H795-MY267/M103202L889-SK1 (antibody, human IgG1, kappa)", "heavy": "QVTLKESGPVLVKPTETLTLTCTVSGIDLSHDDISWVRQAPGKGLEWVGIISYAGSTYYASWAKGRLTISKDTSKNQVVLTMTNMDPVDTATYYCARGVPAYSHGGDLWGQGTLVTVSSASTKGPSVFPLAPSSKSTSGGTAALGCLVKDYFPEPVTVSWNSGALTSGVHTFPAVLQSSGLYSLSSVVTVPSSSLGTQTYICNVNHKPSNTKVDKKVEPKSCDKTHTCPPCPAPELLIGPSVFLFPPKPKDTLMISRTPEVTCVVVDVSDEDPEVKFNWYVDGVEVHNAKTKPREEQYNSTYRVVSVLTVLHQDWLNGKEYKCKVSNKALPKPIEKTISKAKGQPREPQVYTLPPSREEMTKNQVSLTCLVKGFYPSDIAVEWESNGQPENNYKTTPPVLDSDGSFFLYSKLTVDKSRWQQGNVFSCSVMHEALHNHYTQKSLSLSP", "light": "DIVMTQSPATLSLSPGERATLSCTSSQSVYHANWLSWFQQKPGQPPKLLIYWASTLAYGVPSRFSGSGSGTDFTLTISSLQPEDAATYYCAGGYGGGRYAFGQGTKVEIKRTVAAPSVFIFPPSDEQLKSGTASVVCLLNNFYPREAKVQWKVDNALQSGNSQESVTEQDSKDSTYSLSSTLTLSKADYEKHKVYACEVTHQGLSSPVTKSFNRGEC", "notes": "copies: 2 + 2"}}, "key": {"[1]": {"target": "T1, cynomolgus monkey FcγRIIa1 extracellular domain, His-tagged (cynomolgus monkey)", "T1 construct": "also called cyno FcgRIIa1; cynoFcγRIIa1; not shown: His-tag added to the C-terminus", "T1 chain": "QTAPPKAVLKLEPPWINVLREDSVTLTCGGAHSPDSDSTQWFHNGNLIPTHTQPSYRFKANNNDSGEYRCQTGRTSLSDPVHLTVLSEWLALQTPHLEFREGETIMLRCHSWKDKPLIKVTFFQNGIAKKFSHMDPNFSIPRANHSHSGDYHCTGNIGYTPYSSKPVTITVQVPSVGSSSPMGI", "experiment": "SPR; KD of SG1 divided by KD of the variant;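 further: relative to parent M103205H795-SG1 carrying the SG1 human heavy chain constant region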", "protocol": "(§1) Regarding such interactions, KD values were calculated using the following 1:1 binding model described in BIACORE® T100 Software Handbook BR1006-48 Edition AE.\n(§2) The behavior of interacting molecules according to the 1:1 binding model on BIACORE® can be described by Equation 1: Req=C·R max/(KD+C)+RI, wherein, Req is a plot of steady-state binding levels to analyte concentration. C is concentration, RI is bulk refractive index contribution in the sample, and Rmax is analyte binding capacity of the surface. When this equation is rearranged, KD can be expressed as Equation 2: KD=C·Rmax/(Req−RI)−C. KD can be calculated by substituting the values of Rmax, RI, and C into Equation 1 or Equation 2. From the current measurement conditions, RI=0, C=2 μmol/L can be used.\n(§3) The resultant variants were expressed using M103202L889-SK1 as light chain and their affinity to human and cynoFcγRs were evaluated (Table 21)."}, "[2]": {"target": "T2, cynomolgus monkey FcγRIIa2 extracellular domain, His-tagged (cynomolgus monkey)", "T2 construct": "also called cyno FcgRIIa2; cynoFcγRIIa2; not shown: His-tag added to the C-terminus", "T2 chain": "T1 chain with P95T, T121A, I127K, A128S, K130N, D135N, R142Q", "experiment": "SPR; KD of SG1 divided by KD of the variant", "protocol": "as §1, §2, §3"}, "[3]": {"target": "T3, cynomolgus monkey FcγRIIb extracellular domain, His-tagged (cynomolgus monkey)", "T3 construct": "also called cyno FcgRIIb; cynoFcγRIIb; not shown: His-tag added to the C-terminus", "T3 chain": "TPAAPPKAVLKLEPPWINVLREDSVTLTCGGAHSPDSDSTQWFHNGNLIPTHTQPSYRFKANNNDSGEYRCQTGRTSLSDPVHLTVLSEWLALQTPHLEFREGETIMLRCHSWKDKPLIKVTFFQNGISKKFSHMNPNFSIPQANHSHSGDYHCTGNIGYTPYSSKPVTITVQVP", "experiment": "SPR; KD of SG1 divided by KD of the variant", "protocol": "as §1, §2, §3"}, "[4]": {"target": "T4, cynomolgus monkey FcγRIIIaS extracellular domain, His-tagged (cynomolgus monkey, UniProt A3RFZ7 21-206 (rhesus entry))", "T4 construct": "also called cyno FcgRIIIaS; cynoFcγRIIIaS; not shown: His-tag added to the C-terminus", "T4 sequence (A3RFZ7 21-206)": "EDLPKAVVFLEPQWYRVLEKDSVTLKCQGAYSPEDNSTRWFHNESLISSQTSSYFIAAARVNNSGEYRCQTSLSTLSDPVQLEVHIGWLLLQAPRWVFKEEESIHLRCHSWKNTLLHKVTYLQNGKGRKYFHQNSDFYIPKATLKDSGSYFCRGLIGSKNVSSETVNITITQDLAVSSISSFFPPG", "experiment": "SPR; KD of SG1 divided by KD of the variant", "protocol": "as §1, §2, §3"}, "[5]": {"target": "T5, human FcγRIIaH extracellular domain, His-tagged (human, UniProt P12318 34-217)", "T5 construct": "also called human FcgRIIaH; FcγRIIa (type H); not shown: His-tag added to the C-terminus", "T5 sequence": "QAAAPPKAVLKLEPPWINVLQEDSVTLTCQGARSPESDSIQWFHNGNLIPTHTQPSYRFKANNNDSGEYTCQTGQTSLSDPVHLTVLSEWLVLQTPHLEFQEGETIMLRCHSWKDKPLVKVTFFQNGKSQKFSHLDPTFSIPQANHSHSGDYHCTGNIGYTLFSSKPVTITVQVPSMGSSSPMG", "experiment": "SPR; KD of SG1 divided by KD of the variant", "protocol": "as §1, §2, §3"}, "[6]": {"target": "T6, human FcγRIIaR extracellular domain, His-tagged (human, UniProt P12318 34-217)", "T6 construct": "also called human FcgRIIaR; FcγRIIa (type R); not shown: His-tag added to the C-terminus", "T6 chain": "T5 sequence with H134R", "experiment": "SPR; KD of SG1 divided by KD of the variant", "protocol": "as §1, §2, §3"}, "[7]": {"target": "T7, human FcγRIIIaV extracellular domain, His-tagged (human, UniProt P08637 17-208)", "T7 construct": "also called human FcgRIIIaV; not shown: His-tag added to the C-terminus", "T7 sequence (P08637 17-208 F176V)": "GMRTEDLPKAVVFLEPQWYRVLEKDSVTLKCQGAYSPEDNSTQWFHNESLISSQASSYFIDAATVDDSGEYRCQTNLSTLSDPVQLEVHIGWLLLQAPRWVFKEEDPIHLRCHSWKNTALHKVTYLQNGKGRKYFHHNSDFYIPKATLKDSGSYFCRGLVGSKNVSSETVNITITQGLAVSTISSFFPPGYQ", "experiment": "SPR; KD of SG1 divided by KD of the variant", "protocol": "as §1, §2, §3"}, "[8]": {"target": "T4, cynomolgus monkey FcγRIIIaS …", "experiment": "SPR (BIACORE), antibody captured, FcγR as analyte, 25°C", "protocol": "(§4) The kinetic analysis of interactions between these antibodies and FcγR was carried out using BIACORE® T200 or BIACORE® 4000 (GE Healthcare). HBS-EP+ (GE Healthcare) was used as the running buffer, and the measurement temperature was set to 25° C. A chip produced by immobilizing Protein A. Protein A/G or mouse anti-human IgG kappa light chain (BD Biosciences) onto a Series S Sensor Chip CM4 or CM5 (GE Healthcare) by the amine-coupling method was used. […] After the measurement, the antibody captured on the chip was washed off by allowing reaction with 10 mM glycine-HCl, pH1.5 and 25 mM NaOH so that the chip was regenerated and used repeatedly. The sensorgrams obtained as measurement results were analyzed by the 1:1 Langmuir binding model using the BIACORE® Evaluation Software to calculate the binding rate constant ka (L/mol/s) and dissociation rate constant kd (l/s), and the dissociation constant KD (mol/L) was calculated from these values. […] Regarding such interactions, KD values were calculated using the following 1:1 binding model described in BIACORE® T100 Software Handbook BR1006-48 Edition AE.\nas §2"}, "[9]": {"target": "T8, human FcγRIIb extracellular domain, His-tagged (human, UniProt P31994 43-217)", "T8 construct": "also called human FcgRIIb; not shown: His-tag added to the C-terminus", "T8 sequence": "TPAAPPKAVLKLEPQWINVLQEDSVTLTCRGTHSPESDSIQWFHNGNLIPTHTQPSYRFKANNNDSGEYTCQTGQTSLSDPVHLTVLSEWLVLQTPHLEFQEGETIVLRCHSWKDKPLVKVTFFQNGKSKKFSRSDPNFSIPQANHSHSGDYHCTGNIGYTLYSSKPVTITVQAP", "experiment": "SPR (BIACORE), antibody captured, FcγR as analyte, 25°C", "protocol": "as §4, §2"}}, "note": "Where a chain is given by its changes, count along the chain named."}
{"binder": "B1", "values": [{"measurement": "KD fold (SG1 = 1)", "setting": "[1]", "result": 1.3, "unit": "fold"}, {"measurement": "KD fold (SG1 = 1)", "setting": "[2]", "result": 2.6, "unit": "fold"}, {"measurement": "KD fold (SG1 = 1)", "setting": "[3]", "result": 2.1, "unit": "fold"}, {"measurement": "KD fold (SG1 = 1)", "setting": "[4]", "result": 0.13, "unit": "fold"}, {"measurement": "KD fold (SG1 = 1)", "setting": "[5]", "result": 3.5, "unit": "fold"}, {"measurement": "KD fold (SG1 = 1)", "setting": "[6]", "result": 2.5, "unit": "fold"}, {"measurement": "KD fold (SG1 = 1)", "setting": "[7]", "result": 0.05, "unit": "fold"}, {"measurement": "Kd", "setting": "[8]", "result": 2.7, "unit": "µM"}, {"measurement": "Kd", "setting": "[9]", "result": 5.7, "unit": "µM"}]}
